Data reported in patent US12173349B2, “Lung protease nanosensors and uses thereof” (Massachusetts Institute of Technology, priority 2018, dated 2024).
Primed or numbered codes have the meaning given here. Where no end group is shown, it is not given here. FAM = carboxyfluorescein fluorophore label; 5FAM′ = 5-carboxyfluorescein

What was measured:
recombinant human MMP13 = biological target: T1, recombinant human MMP13 (Homo sapiens, UniProt P45452); assay: cleavage of aerosolized fluorogenic nanosensor by MMP13; type: biochemical; conditions: 50 nM MMP13, 5 μM nanosensor
T1 construct: purchased Enzo
Protocol: As a step toward developing a more clinically relevant delivery method, particle durability and biodistribution after aerosolization were also characterized.
Analysis of nanoparticle stability and protease cleavage susceptibility following aerosolization used […] 250 μM PEG-840 kDa scaffold (FIGS. 22B-22E) or 5 μM PPQ5 PEG-840 kDa nanosensors (FIG. 22F). Protease cleavage assays of aerosolized nanoparticles used 50 nM of recombinant human MMP13 (Enzo).

[1] = urinary filtration of mass-encoded free reporters after IT or IV administration; type: in vivo, mice; conditions: doses 2.5 ng to 25 ng, urine at 1 hour
Text: To enable detection of a broad spectrum of disease-associated proteases in vivo, the 14 peptides of the LUAD substrate panel were appended with mass-encoded reporters (PP1-14; Table 3). Following substrate proteolysis, the reporters diffuse away from the nanoparticle scaffold and are sized so as to be able to efficiently cross into the bloodstream, where they can be concentrated into the urine by glomerular filtration (FIG. 1B). As previously described (Kwong et al., Nat Biotechnol 31, 63-70, 2013), variable labeling of the 14-mer Glu-Fibrinopeptide B (Glu-Fib) with stable isotope-labeled amino acids was used to uniquely barcode each of 14 peptide substrates. Multiple reaction monitoring via a liquid chromatography triple quadrupole mass spectrometer (LC-MS/MS) enables quantitative assessment of peptide-liberated urinary reporter concentration within a broad linear range (1-1000 ng/mL, FIG. 8A). Using mass-encoded free reporters, the filtration of Glu-Fib reporters into the urine after IT or IV administration was assessed and strong linearity of the MS assay for both routes of delivery for input doses between 2.5 ng and 25 ng (R^2=1.00, FIG. 8B) was found for both routes of delivery (sloperIT=0.075 ng^−1, slopeIV=0.077 ng^−1; FIG. 8B).
Liquid chromatography/tandem mass spectrometry was performed by Syneos Health (Princeton, NJ) using a Sciex 6500 triple quadrupole instrument. […]

PA01 supernatant = assay: cleavage of FRET-paired substrates by bacterial supernatant; type: biochemical, Pseudomonas aeruginosa; conditions: PA01 culture supernatant, fluorescence change at 30 minutes
Protocol: (§1) The specificity of LAS and ELA for P. aeruginosa cleavage was tested by collecting supernatants from PA01 or Staphylococcus aureus cultures and incubating them with FRET-paired substrates LAS-Q and ELA-Q in 384 well plates. […] To investigate whether the LAS and ELA substrates are also susceptible to cleavage by host proteases, each was incubated with recombinant mouse proteases.
(§2) Supernatant from PA01 and S. aureus were collected and added to substrates in 384 well plates and dequenching of FAM was monitored at 37° C. (Tecan). Fluorescence change at 30 minutes was reported. For recombinant protease assays, enzyme was added to the substrates in enzyme-specific buffer (MMP7 & 9 buffer: 50 mM Tris, 150 mM NaCl, 5 mM CaCl2), […], pH 7.5; Thrombin: PBS; NE: 100 mM HEPES, 500 mM NaCl, 0.05% Tween 20) in a 384 well plate for time-lapse fluorimetry to measure dequenching at 37° C. (Tecan).

[2] = system: P. aeruginosa clinical isolate strains; assay: cleavage of FRET-paired substrates by clinical isolate supernatants; type: biochemical, Pseudomonas aeruginosa; conditions: five clinical isolate strains
Protocol: P. aeruginosa strains isolated from de-identified clinical samples were generously provided by Dr. Deborah Hung, MD, PhD (Massachusetts General Hospital). Cultures of each were grown in LB broth overnight, then were subcultured in fresh LB and each strain grown to OD-matched mid log phase (OD600˜0.5). Supernatants were collected by centrifugation and substrate cleavage was monitored as described above.

thrombin = thrombin (Mus musculus, UniProt P19221); assay: recombinant host protease cleavage assay; type: biochemical
Protocol: as §1, §2

MMP13 = MMP13 (Mus musculus, UniProt P33435); assay: recombinant host protease cleavage assay; type: biochemical
Protocol: as §1, §2

MMP7 = biological target: T2, MMP7 (Mus musculus, UniProt Q10738); assay: recombinant host protease cleavage assay; type: biochemical
T2 sequence (Q10738 95-264): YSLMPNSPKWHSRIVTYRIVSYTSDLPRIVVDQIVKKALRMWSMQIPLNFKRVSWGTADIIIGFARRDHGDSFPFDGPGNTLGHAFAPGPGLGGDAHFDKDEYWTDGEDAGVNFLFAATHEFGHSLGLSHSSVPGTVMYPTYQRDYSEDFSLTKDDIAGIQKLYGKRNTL
Protocol: as §1, §2

PEG-PPQ5: fluorogenic nanosensor, PPQ5 on PEG-840 kDa ({5FAM′}-GGPLGVRGKKC; not fully specified (residue 10); printed as GGPLGVRGKK(CPQ2)-PEG2-C; also: on PEG-840 kDa carrier, site not given here)
sensitivity to in vitro cleavage pre- versus post-aerosolization (recombinant human MMP13): equally sensitive

Glu-Fib reporters: mass-encoded free reporters, stable isotope-labeled variants of 14-mer Glu-Fibrinopeptide B
slope of urinary reporter signal versus input dose ([1]; IT administration): 0.075 ng⁻¹ | slope of urinary reporter signal versus input dose ([1]; IV administration): 0.077 ng⁻¹

LAS-Q: FRET-paired (FAM fluorophore, Dabcyl quencher) substrate for P. aeruginosa protease LasA; includes SEQ ID NO: 45 (GLGGGAGK(FAM); also: Dabcyl quencher, site not given here)
cleavage by supernatant (fluorescence signal) (PA01 supernatant): greater selectivity for cleavage of LAS-Q by PA01 | strains whose supernatant gave significant cleavage [2]: 3 of the 5 strains | cleavage by recombinant protease (thrombin): resist cleavage | cleavage by recombinant protease (MMP13): resist cleavage | cleavage by recombinant protease (MMP7): resist cleavage
